Experimental data published in doi:10.64898/2025.12.17.694870 (bioRxiv, 2025).
Positions count from the first letter of the chain named. Where no end group is shown, it is not given here.

T1: wild-type Homer1 EVH1 domain (1-118) (Mus musculus, UniProt Q9Z2Y3 1-118)
T1 sequence (looked up): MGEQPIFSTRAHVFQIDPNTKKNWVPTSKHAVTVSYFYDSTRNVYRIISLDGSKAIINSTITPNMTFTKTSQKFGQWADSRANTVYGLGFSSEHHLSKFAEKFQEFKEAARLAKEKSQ

T2: Homer1 EVH1 domain (1-118) M65I (Mus musculus, UniProt Q9Z2Y3 1-118, M65I)
T2 sequence (looked up): T1 sequence (looked up) with M65I

T3: Homer1 EVH1 domain (1-118) S97L (Mus musculus, UniProt Q9Z2Y3 1-118, S97L)
T3 sequence (looked up): T1 sequence (looked up) with S97L


Key:
[1] = target: T1, wild-type Homer1 EVH1 domain (1-118); assay: BLI
[2] = target: T2, Homer1 EVH1 domain (1-118) M65I; assay: BLI
[3] = target: T3, Homer1 EVH1 domain (1-118) S97L; assay: BLI
[4] = target: T1, wild-type Homer1 EVH1 domain (1-118); assay: NMR titration
[5] = target: T2, Homer1 EVH1 domain (1-118) M65I; assay: NMR titration
[6] = target: T3, Homer1 EVH1 domain (1-118) S97L; assay: NMR titration

binding result [1] | binding result [2] | binding result [3] | binding result [4] | binding result [5] | binding result [6] | Binder
binds | binds | binds | – | – | – | LVPPPEEFANG (also: biotinylated, site not given here) [biotinylated Shank3 peptide ligand LVPPPEEFANG]
– | – | – | binds | binds | binds | LVPPPEEFANG [short Shank3 peptide LVPPPEEFANG]
